The text below walks through data of patent US20150174237A1 (HENRY M JACKSON FOUNDATION FOR THE ADVANCEMENT OF MILITARY …, published 2015).

For the experiment, the target named is T1, mouse B cell CD21 (on mouse B cells) (mouse, UniProt P19070 12-1025).
T1 construct: whole, on cells
T1 sequence: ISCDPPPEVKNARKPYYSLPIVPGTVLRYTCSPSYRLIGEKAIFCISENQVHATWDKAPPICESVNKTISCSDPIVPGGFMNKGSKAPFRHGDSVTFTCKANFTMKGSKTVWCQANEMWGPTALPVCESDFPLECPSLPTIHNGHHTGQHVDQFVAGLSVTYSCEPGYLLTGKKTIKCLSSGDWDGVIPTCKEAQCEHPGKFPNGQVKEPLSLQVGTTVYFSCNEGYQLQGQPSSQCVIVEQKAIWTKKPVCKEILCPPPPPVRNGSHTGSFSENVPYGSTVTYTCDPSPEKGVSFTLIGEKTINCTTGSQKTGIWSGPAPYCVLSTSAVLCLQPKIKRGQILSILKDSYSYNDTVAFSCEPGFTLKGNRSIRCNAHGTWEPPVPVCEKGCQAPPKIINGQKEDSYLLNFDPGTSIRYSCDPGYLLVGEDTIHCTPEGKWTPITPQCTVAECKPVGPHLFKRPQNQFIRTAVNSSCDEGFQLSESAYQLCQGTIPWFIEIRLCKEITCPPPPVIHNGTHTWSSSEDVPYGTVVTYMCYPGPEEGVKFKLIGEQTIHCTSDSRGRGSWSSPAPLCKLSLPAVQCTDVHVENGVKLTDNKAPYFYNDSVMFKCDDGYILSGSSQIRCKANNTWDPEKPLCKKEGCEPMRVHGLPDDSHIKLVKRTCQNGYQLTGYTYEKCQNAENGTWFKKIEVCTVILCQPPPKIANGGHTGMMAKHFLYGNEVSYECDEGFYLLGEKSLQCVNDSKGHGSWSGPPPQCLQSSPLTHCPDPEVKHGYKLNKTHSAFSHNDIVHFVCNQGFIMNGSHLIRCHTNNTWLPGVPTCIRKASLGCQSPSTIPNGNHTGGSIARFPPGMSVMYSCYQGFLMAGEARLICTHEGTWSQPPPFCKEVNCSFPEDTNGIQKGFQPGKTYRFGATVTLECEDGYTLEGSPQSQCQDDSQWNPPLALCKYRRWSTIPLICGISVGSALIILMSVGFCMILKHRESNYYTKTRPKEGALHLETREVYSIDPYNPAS
In words: not described (own observation on mouse B cells).

B1: monomeric gp350 (truncated EBV gp350, amino acids 1-470, with His6 tag) (ligand)
chain: MEAALLVCQYTIQSLIHLTGEDPGFFNVEIPEFPFYPTCNVCTADVNVTINFDVGGKKHQLDLDFGQLTPHTKAVYQPRGAFGGSENATNLFLLELLGAGELALTMRSKKLPINVTTGEEQQVSLESVDVYFQDVFGTMWCHHAEMQNPVYLIPETVPYIKWDNCNSTNITAVVRAQGLDVTLPLSLPTSAQDSNFSVKTEMLGNEIDIECIMEDGEISQVLPGDNKFNITCSGYESHVPSGGILTSTSPVATPIPGTGYAYSLRLTPRPVSRFLGNNSILYVFYSGNGPKASGGDYCIQSNIVFSDEIPASQDMPTNTTDITYVGDNATYSVPMVTSEDANSPNVTVTAFWAWPNNTETDFKCKWTLTSGTPSGCENISGAFASNRTFDITVSGLGTAPKTLIITRTATNATTTTHKVIFSKAPESTTTSPTLNTTGFADPNTTTGLPSSTHVPTNLTAPASTGPTVSTHHHHHH
Regarding B1, the binding result is on record as “no binding”.
